# Source: patent publication US20180224449A1 (GOVERNMENT OF THE UNITED STATES AS REPRESENTED BY THE …, published 2018)
# Ends that are not written are not given here. * marks the point of attachment. Biotin = O=C1N[C@H]2[C@H](CS[C@H]2CCCCC(=O)*)N1
# T1: biotinylated OprF1 synthetic peptide (P. aeruginosa)
# T1 construct: also called OprF1-B; OprF1-Biotin
# T1 peptide: Biotin-GTYETGNKKVH
# B1: monoclonal M13 phage displaying OBP4 (RRSNSQL) (peptide)
# chain: RRSNSQL
# notes: also called OprF-specific bacteriophage; not shown: P3 coat protein of M13 bacteriophage (Ph.D.-7 library)
# B2: monoclonal M13 phage displaying OBP6 (NMTNPPP) (peptide)
# chain: NMTNPPP
# notes: as for B1
# B3: OBP12 peptide-quantum dot conjugate (peptide)
# peptide: PKRTPRH
# modifications: also: conjugated to quantum dot
# notes: The summary and claims describe a C-terminal three-glycine plus cysteine linker to an amine-functionalized quantum dot; also called QD545-OBP12; OBP12-QD545
# B4: OBP11 peptide-quantum dot conjugate (peptide)
# peptide: PIKTNRK
# modifications: also: conjugated to quantum dot
# notes: The summary and claims describe a C-terminal three-glycine plus cysteine linker to an amine-functionalized quantum dot; also called QD545-OBP11; OBP11-QD545
# B5: monoclonal M13 phage displaying OBP7 (QITLRST) (peptide)
# chain: QITLRST
# notes: as for B1
# B6: monoclonal M13 phage displaying OBP9 (QMLLRLP) (peptide)
# chain: QMLLRLP
# notes: as for B1
# B7: monoclonal M13 phage displaying OBP11 (PIKTNRK) (peptide)
# chain: PIKTNRK
# notes: as for B1
# B8: monoclonal M13 phage displaying OBP12 (PKRTPRH) (peptide)
# chain: PKRTPRH
# notes: as for B1
# Experiments:
# [1] = biological target: T1, biotinylated OprF1 synthetic peptide; assay: pooled monoclonal phages pulled down on biotinylated OprF1 in Bushnell-Haas with 1% Jet-A; unamplified eluate, share of 30 sequenced clones
# [2] = biological target: T2, OprF outer membrane protein on P. stutzeri cells (P. stutzeri); assay: fluorometry of cells recovered from spiked 1 L Jet A fuel and labeled with 1.5 uM peptide-QD545, at the LOD of 5 x 10^5 CFU
# T2 construct: whole, on cells; whole bacterial cells were labeled
# [3] = biological target: T3, OprF outer membrane protein on A. venetianus cells (A. venetianus); assay: as above
# T3 construct: whole, on cells; Whole bacterial cells were labeled
Binder,% Abundance [1] [%],FLUORESCENCE (RFU) [2] [RFU],FLUORESCENCE (RFU) [3] [RFU]
B1,33,,
B2,10,,
B3,,12200,580
B4,,255,292
B5,10,,
B6,3,,
B7,10,,
B8,3,,
